From publication PMC2881104

Molecular target: regulatory domain of OxyR (NMB0173) from Neisseria meningitidis, reduced form (N. meningitidis)
Test: crystal structure; selenomethionine protein, His tag removed, 9 mg/ml in 20 mM Tris pH 7.5, 200 mM NaCl, 2 mM TCEP; reservoir 20% w/v PEG 3350, 0.2 M calcium acetate; 2.4 Å; dimer in the asymmetric unit

stoichiometry N: 2
Substance: regulatory domain of OxyR (NMB0173) from Neisseria meningitidis, reduced form (domain or fragment)
